{"source": "the DeepSol protein solubility set"}
{"assay": "soluble on expression in E. coli; label from the status in PepcDB or PDB records"}
{"sequence": "LTRFFGDFFLDIEVKLADVAMMYGLNLGYELQDKTLSNIVEEQLGSTPVLGDQFEWQGLQWVIADVVDHQVTKVGLRLPNEEEEGEEED", "soluble on expression in E. coli": "not soluble"}
{"sequence": "LVLEGGGMRGLYTAGVLDAFLEAGIKVDGVVSVSAGALFGVNYLSNQPKRALRYNKRFMGDRRYMSFWSWLTTGNFVNKEFSYYKVPMELDVFDQDAFAESGVPFYVVATDIKTGKPDYIKIDHVFEQMEALRASSALPLVSEIVEYKGKRYMDGGLADSLPI", "soluble on expression in E. coli": "not soluble"}
{"sequence": "LVPRGSAMGISNDSSRGANRTIVVTTILESPYVMYKKNHEQLEGNERYEGYCVDLAYEIAKHVRIKYKLSIVGDGKYGARDPETKIWNGMVGELVYGRADIAVAPLTITLVREEVIDFSKPFMSLGISIMIKKGTPIESAEDLAKQTEIAYGTLDSGSTKEFFRRSKIAVYEKMWSYMKSAEPSVFTKTTADGVARVRKSKGKFAFLLESTMNEYIEQRKPCDTMKVGGNLDSKGYGVATPKGSALGTPVNLAVLKLSEQGILDKLKNKWWYDKGECG", "soluble on expression in E. coli": "soluble"}
{"sequence": "LVSSPSTLNPGTNVAKLAEQAPVHWVSVAQIENSLTGRPPMAVGFDIDDTVLFSSPGFWRGKKTYSPDSDDYLKNPAFWEKMNNGWDEFSIPKEAARQLIDMHVRRGDSIYFVTGRSQTKTETVSKTLADNFHIPAANMNPVIFAGDKPEQNTRVQWLQEKNMRIFYGDSDNDITAARDCGIRGIRILRAANSTYKPLPQAGAFGEEVIVNSEY", "soluble on expression in E. coli": "soluble"}
{"sequence": "LWVYPARKPRGKAIIMCPGGGFNQIASDHEGRDFAAWFNNQGITYAVLNYRMPHGDVEVIREDIREAIRLIRRQSAEWGIHQLGVMGASIGGYIAATAATLYTGTDRPDFQVLLYPVISMTDRLTHWPSRERMLGETISEGLKETLSLELHVTADTPPTFIVLAEDDQAVSPLNSIVYYTALLKHGVSAGLHIYPEGGHSFGFRDSFIYKELWTDELQKWL", "soluble on expression in E. coli": "not soluble"}
{"sequence": "LYIHGFASSGESHKAKALKAGLAPYEVMTPTLSYVPSLAFQTLRQLVDESLAQKEELTLIGASLGGYYATQLSWLYNLKAILINPAITPYETL", "soluble on expression in E. coli": "not soluble"}
{"sequence": "MAAAKIKKGDTVLVVRGKEKGKQGKVLKVYERVKRRDKQGNPVYVRHFVIVEGVRLIKKHVKPIEGVREGGIIETEGPIDISNVMLICPNCNKPTRVGFRIVEEGNVRRKYRYCKKCNENIDLVSEKVIKGG", "soluble on expression in E. coli": "soluble"}
{"sequence": "MAADVGQALAFLQQVKTTQGASIYEGLKAALAKVLEDRPVNAVEALETSVLSTPPAANLSVPLVPAASAAAAAAAVAKASLFGDPEPVLDPESGEPIDPDAPNEFECEDVEGDGDLLDGLGVGLGRQEMYAAMLAVKRLGEDAKRGVSTVRFFGKFFGTQADYYVFETTLQSNPDMPEAPEGTIPLEPYGEGVNAYIYFVSNTLGGPLQQLPYVTPEQIKASRLLRRYLTGRLDAPVSAFPAFPGNEANYLRALIARISAATVCCPRGFFTADDDSAELSANDEWVPLKGREMALPVNWSHRYAHLKGQGRTVTHKRDPPDEEEEPEKNFWTAEEMEAGPPPLATLDTDAPLPAATGDKVPPPAWSPVFASASVTTRNQVAGVRSNRWPGAVCACAGRHFTSMYVGWGIKAGGEWSPCPPPPPVPQWGAPAAGVEGGQQLLLECNDLPPKPAPPEEEDE", "soluble on expression in E. coli": "not soluble"}
{"sequence": "MAAFSVHILGCGSALPTTHHHPSSQVIDLRDKLYMIDCGEGVQRQFRHEKLHFGRLIHIFISHLHGDHCFGLPGFISTLGLLGRTGTLHVHGPEGIERFLSPILEQFCHRMPYQVEIHTIDASRHALVHEDKSVKVYSIPLSHRIPAVGYLFEEKCRARHLNKAAAEFYNIPLAEYPLIIEGSDYTTPDGRIIPNRHLTTPGTPPRRYAYCSDTEFCPSIVPIIQGVDLLYHEATFMEEDRARAKETFHSTAKEAAEIARQAGAKRLLIGHYSGRYKDVQGLLEEAQSVFKPTIAANERMRIDL", "soluble on expression in E. coli": "not soluble"}
{"sequence": "MAAINTKVKKAVIPVAGLGTRMLPATKAIPKEMLPLVDKPLIQYVVNECIAAGITEIVLVTHSSKNSIENHFDTSFELEAMLEKRVKRQLLDEVQSICPPHVTIMQVRQGLAKGLGHAVLCAHPVVGDEPVAVILPDVILDEYESDLSQDNLAEMIRRFDETGHSQIMVEPVADVTAYGVVDCKGVELAPGESVPMVGVVEKPKADVAPSNLAIVGRYVLSADIWPLLAKTPPGAGDEIQLTDAIDMLIEKETVEAYHMKGKSHDCGNKLGYMQAFVEYGIRHNTLGTEFKAWLEEEMGIKK", "soluble on expression in E. coli": "soluble"}
{"sequence": "MAAKHVLFSTDARQKMLSGVNLLANAVKVTLGPKGRHVVLNKSYGAPTITKDGVSVAKEIELADKFENMGAQMLKQVASKANDEAGDGTTTATVLAQALINEGMKAVAAGMNPMDLKRGIDKAVSAAVEKLHQLAKPCSDTQSITQVGAISANSDHAIGEIIAQAMEKVGRNGVITVEEGQALQNELSVVEGMQFDRGYLSPYFINQPKAGCVELENPYVLLVDKKISHIRELLPILESVAKASRSLLIIAEDVDGDALATLVVNSMRGIIKVAAVKAPGFGEQRKAMLEDIAALTAGRVISEEIGLELEKVTLDDLGSAKKVTINKDNTTIVDGAAEPSALQDRIAQIQHQLEHTTSQYDRDKLQQRIAKLSGGVAVIKIGAATEVEMKEKKDRVDDALHATRAAVEEGIVAGGGVALLKIANELSNLQGDNDDQNVGIRIALRAMEEPLRQIAINAGDEASVIANQVKTGDEHYGYNAATGQFGNMLEMGILDPAKVTRSALQFAASIAGLMITTEAMVSEVDKESAA", "soluble on expression in E. coli": "not soluble"}
{"sequence": "MAAKIEDMETRIEALMDVMRVPPGKKINLKKDYDPGFTGKWMTKAEAKETLARGIQMLAEMQDKLWAQNQYAVLMNLQALDAAGKDGTIKHVMSGVNPQGVDVHSFKGPSSEEMDHDYLWRNFKALPSRGRIGIFNRSYYEEVLVVRVHPEFLASQQLPPKLKDKRIWRRRFEEINNFEKYLVDNGIVVIKFFLYVSKEAQKERFLRRTQLPEKNWKFSAADIKERAHWDDYIAAYEDMFNHTSTEWAPWYIVPADHKWFTRLAVAAVLYYTMEKLNLAYPTVSEEQKQALIAAKEELEREDSGPKDKAVVKAEEEEDADPQDPASNGEVPKDESKKESKKKGSKNR", "soluble on expression in E. coli": "not soluble"}
{"sequence": "MAAKKDYYAILGVPRNATQEEIKRAYKRLARQYHPDVNKSPEAEEKFKEINEAYAVLSDPEKRRIYDTYGTTEAPPPPPPGGYDFSGFDVEDFSEFFQELFGPGLFGGFGRRSRKGRDLRAELPLTLEEAFHGGERVVEVAGRRVSVRIPPGVREGSVIRVPGMGGQGNPPGDLLLVVRLLPHPVFRLEGQDLYATLDVPAPIAVVGGKVRAMTLEGPVEVAVPPRTQAGRKLRLKGKGFPGPAGRGDLYLEVRITIPERLTPEEEALWKKLAEAYYARA", "soluble on expression in E. coli": "soluble"}
{"sequence": "MAALVDLVNFQLENAKALSTVLRQETQAITARVSSEIESIAKRKMTLIDQLRTTDQRIASHPHVNQLTEDEHLSQVVAQIQSIVLDCQQVNRVNGESLSRAQLSFNKLNNMLQHTHGKIGMTYNAGGKTHTISTLGTNIKA", "soluble on expression in E. coli": "not soluble"}
{"sequence": "MAAPASSATLPSVLQLTANTSAGGKRPSRAVTMPALKQAAKAAAAAPSPSPSFHVFADLPDHLLCSPDNSVWVYAQHTLSFLTSEAAAQAKLGRKVQRMMREAQRQYDISCAFFHSMSSDEQMAEVLRVGSGGGALSLPPAMTAATGTPAKSDRKRLTGVHRALRDAWPTWRGPNMSDAANSLTAREVGGAGESESSENRYSAGLRVNIVLDIVASRKTLRTVPLRSRPYRLAEYLYQLVMQPSATQRATAAPALGDMASHVRSLIIGISDADTTLVGCHIVCPYRHLTSPTPMMMRLRRAIEGAADQERARALAAAEAANTTVSGLDTQWQASSAAAAAEAAASDAAPSPLRSLVASHLAHYRRVDALFPAPYVRVPPQSLEQIDQNRLILCTPGKLLDG", "soluble on expression in E. coli": "not soluble"}
{"sequence": "MAASPLVVQKTEEEWRAVLSPEQFRILRQKGTEKPGTGEYDKFFEEGIFDCVGCKTPLYKSTTKFDSGCGWPAFFEGLPGAINRTPDPDGRRTEITCAACDGHLGHVFKGEGYGNPTDERHCVNSVSISFNPAKSSSII", "soluble on expression in E. coli": "soluble"}
{"sequence": "MAATQEEIVAGLAEIVNEIAGIPVEDVKLDKSFTDDLDVDSLSMVEVVVAAEERFDVKIPDDDVKNLKTVGDATKYILDHQA", "soluble on expression in E. coli": "soluble"}
{"sequence": "MAAWFECKVTYEKVADNGMPKKVVESYLVDADSFTLAEAKMIEEITPFVSMGEFNISNIRKVNYAELFLNEDDKCDRYYRCKVLYVTIDEKNGVEKKTPAFMLVKSDSLPNAVAELEKQMGKGLADYEIASVAETALMDVFQYVPAQ", "soluble on expression in E. coli": "not soluble"}
